Read-outs that look alike come from different tables or passages of the source.

As for Env (BG505.T332N): N197S and N197T, where the note is “N-glycosylation at N195”, the other result is on record as “decreases”.

In the case of Env (LAI): D113N, the other result (N-glycosylation at N113) is listed as “no change”.

As to Env (LAI): N197S/T, where the note is “N-glycosylation at N197”, the other result is given as “no change”.

For the origin of these results see publication PMC6435357.
